This series in a line: soluble on expression in E. coli; label from the status in PepcDB or PDB records.
“MGSDKIHHHHHHMATRHDRDGGQTTANLTIATGLDAFTRKEWATLAGTTRSDSDYNPFISHEFLAALEESGCAARRTGWLPQHLRLEDANGSLLGVVPCYLKSHSKGEYVFDYGWADAFERAGGQYYPKLQVSVPFTPVTGPRLLASKDADPDAVRQALAEGLKTLTDRLGVSSLHVTFAPRSETEVLSHAGFLTRTDQQFHFFNEGYGSYEDFLEALASRKRKALKKERRTAVEAGMEIEWLTGRDITEAAWDDFFAFYMDTASRKWGRPYLNRLFFSLIGERMADDILLVMAKRGSRYIAGAINFIGSDALYGRNWGAIEHHPFLHFEVCYHQAIEFAIAKGLKRVEAGAQGEHKLARGYLPVTTYSAHYIAHPGLRRAVADYLSRERREVEAIGDFLTEHSPYKKG”: the “soluble on expression in E. coli” value is reported as “not soluble”.

Take “MNAFDRARQSAIAAAREARGTYRNGLVTPTAGVAPGMTQANLIALPRDWAYDFLLYAQRNPKACPILDVSDAGSPTTLLAEGSDLRTDIPMYRIWRDGKLAEEVSDATQAWAEHDDMVAFLIGCSFTFETPLQEAGIEVRHITDGCNVPMYRTNRACRPAGRLHGEMVVSMRPIPADRVAEASAISGRYPSVHGAPVHIGEPGRLGINDLSRPDFGDAVSIKPGEVPVFWACGVTPQAAVMASGVPFAITHSPGYMFITDVPDSTYHVLEHHHHHH”: the “soluble on expression in E. coli” value is recorded as “soluble”.

Consider “MGSDKIHHHHHHMEILMLKTFKAVVDEDGIKGAADKLHTVQSNITSRIKKLEKELDTKLFTIIGRKLQLTPSGQQLCEYADQILQLEYQATSAILRNKGTYELRVGMPETFAAVHMPMALKKLKLNHAEIRTKIHTDTSERLVFSVLNNKVDCAAIGNAPKHENLIIIPIVKEELIMVTPRDSEHDPVLFVRDEGCGYRKHALIWQQKAGRGNDELMVMSSADGVLGCIAAGLGYTIIGKNMVAGSRYEKSLVMTPVSHGPKHVQLSIVYRKDSPLESGILTLAKLLTK”, for which the “soluble on expression in E. coli” value was “not soluble”.

Turning to “MSLKPKRILLVNEQRSFQVMMKAMLINIGISRITYANSAEEARRRCQKETFDIYLLDYELGVGENGRQLLESLRDQKLIPPQSVVIMVSGDSSRAMVLSALEAEPDEYLMKPFSQEQFSFRLKRALARRQALESVFSALAKEDLPTLLAACAERADAVPRFANFCRCLQADTQLKLGQAKEARSLMRQLLAGQENSWARLTLGKACHTLGLNEEAVSHLQATLKNTPLMVEAHLWLAESQLALGNDEQAQQELKRAVDISPQSVQLSRRLAEVCLLRHDYAQAKDVLLSLIDLSRNSIHRTPHYLGAYIQSLTLYALNSNEGHHHHHH”, the “soluble on expression in E. coli” value is on record as “not soluble”.

In the case of “MADDLNAGPKANREFKNSVFTLLFNEEEAIRDISGAVGAMLGKEISPNTPIKKTTLQNALLGGKLNDLSFVLDDKLIVLIEHQSTINKNMPLRMLHYICEIYNHLYEKKDLYRKKKILIPKPVFIVLYNGEEDIKDFEEYLLSDLFKDFDISKEQPYLELRVQVRNINKGHSAEIVKQSPLLLDYVAFVEEVREVNKEEGMTPELAMEKAIENCIKKGILTVFLTRHKEEVMKMLVAEWDYDLDREVARDEGREEGREEGRTEETANNIKDLYRIGVSIETIAKAFGLSEHDVKDILGL”, the “soluble on expression in E. coli” value was “soluble”.

With “MPKGGASCLTPVYAGIRDDLNSFLRAYLQFESVRFFDYKVMFENRGMVGLFTGRHNSAEIIEFNECLLVHCLPYMEECVCPGTPRSLKERLFGLYSLYTFYYIQQEKHVVKVRMDPDSSRNFRRFAQFLLTEKIYDAYALCQKLLEDKAIKQVAFISIHDPSHFKRFYTDDKVSGVSIRTNLNDPLVNVKALVEQFDALGVIHKEYSRLKMKLGITSWMKLKDPIEELKKIIKTSLQAVESSSGVDEIVHTDHSAQQLASRGMQRSSIKDQAHSAALKFSRTRRHRSVKPVIVPAETFEYAPDPKKKKEAQETMPVSGRNGRKRGRPKSVPKSKVSNPARILYEKLAEDMISEHLSTDLTEQEAFTDRPQSSLEPQKNELFNWDAAPQDAQISNQTTEPSCGEDIFIEDFGEFKSQDDVMFTAEDFNDSLIPPLADSDSDLEIDA”, the “soluble on expression in E. coli” value is listed as “not soluble”.

Turning to “MEVFVFTPKGDLYKMPKGATVLDFAFAIHSKLGSKCIGAKVNGKNAQLKQTLNSGLEHHHHHH”, the “soluble on expression in E. coli” value is reported as “not soluble”.

As for “MSLNPNYSIFAELYDELFDPNMYLSWNGFVQDNSRNNRILDLAGGSGKLAVLLTKSGYQVSILDLSSQMLSLAKQRAENNNFSFDLFQANMAQNWHLNKRFPLISCFADSLNYLSNIGETKRTFFEVFNHLEKNGKFLFDVITPYQVNVVYRNYMYNNDDDPEKIFMWTSFPGDIKNSVDHDLKFFVYQEGIDAFKMVREVHHEQTYPPEKYLSLLKEIGFRNIHLTSDFGRGKITRDTTRAFFVAEKEGHHHHHH”, the “soluble on expression in E. coli” value is listed as “not soluble”.

The values are drawn from the DeepSol protein solubility set.
